B1: hCdc5 DNA binding domain (amino acids 1-120), His6 fusion (other)
chain: MPRIMIKGGVWRNTEDEILKAAVMKYGKNQWSRIASLLHRKSAKQCKARWYEWLDPSIKKTEWSREEEEKLLHLAKLMPTQWRTIAPIIGRTAAQCLEHYEFLLDKAAQRDNEEETTDDP
notes: Expressed and purified in E. coli as a His6 fusion; also called helix-turn-helix domain; not shown: His6 tag
B2: hCdc5 putative nuclear localization domain (amino acids 205-358), His6 fusion (other)
chain: KRGVDYNAEIPFEKKPALGFYDTSEENYQALDADFRKLRQQDLDGELRSEKEGRDRKKDKQHLKRKKESDLPSAILQTSGVSEFTKKRSKLVLPAPQISDAELQEVVKVGQASEIARQTAEESGITNSASSTLLSEYNVTNNSVALRTPRTPAS
notes: Expressed and purified in E. coli as a His6 fusion; not shown: His6 tag
B3: hCdc5 central domain (amino acids 365-501), His6 fusion (other)
chain: EAQNLMALTNVDTPLKGGLNTPLHESDFSGVTPQRQVVQTPNTVLSTPFRTPSNGAEGLTPRSGTTPKPVINSTPGRTPLRDKLNINPEDGMADYSDPSYVKQMERESREHLRLGLLGLPAPKNDFEIVLPENAEKE
notes: as for B2

How the values were obtained:
[1] = target: B2; experiment: glutaraldehyde cross-linking of purified His6 fusions
[2] = target: B3; experiment: as above
[3] = target: the molecule itself; experiment: glutaraldehyde cross-linking of purified His6 fusion, SDS-PAGE and anti-His immunoblot
[4] = target: the molecule itself; experiment: glutaraldehyde cross-linking of purified His6 fusion
[5] = target: B1; experiment: glutaraldehyde cross-linking of purified His6 fusions

Question: What does the source list for B1?
Answer: binding result [1]: no binding; binding result [2]: no binding; binding result [3]: binds

Question: Does B2 bind [3]?
Answer: binds

Question: Does B3 bind [4]?
Answer: no binding

Question: Does B3 bind [1]?
Answer: no binding

B4: hCdc5 carboxyl terminal domain (amino acids 491-802), His6 fusion (other)
chain: EIVLPENAEKELEEREIDDTYIEDAADVDARKQAIRDAERVKEMKRMHKAVQKDLPRPSEVNTEILRPLNVEPPLTDLQKSEELIKKEMITMLHYDLLHHPYEPSGNKKGKTVGFGTNNSEHITYLEHNPYEKFSKEELKKAQDVLVQEMEVVKQGMSHGELSSEAYNQVWEECYSQVLYLPGQSRYTRANLASKKDRIESLEKRLEINRGHMTTEAKRAAKMEKKMKILLGGYQSRAMGLMKQLNDLWDQIEQAHLELRTFEELKKHEDSAIPRRLECLKEDVQRQQEREKELQHRYADLLLEKETLKSKF
notes: as for B2
Question: Does B4 bind [4]?
Answer: no binding

Question: Does B4 bind [5]?
Answer: no binding

Question: Does B4 bind [1]?
Answer: no binding

Question: Does B4 bind [2]?
Answer: no binding

From patent US20020127702A1 (University of California, published 2002)
